The source of these data is patent US20140011213A1.

In this experiment the target is BAP-CD59a reporter, biotinylated in vitro by BirA (on CHO-S cells) (mouse). As to the kind of experiment: FACS; CHO-S transfected with BAP-CD59a, incubated with BirA and stained with F-SA (non-transfected stained control MFI-69). Background: A flow cytometer gives signals particle by particle.
BAP-CD59a reporter, biotinylated in vitro by BirA (on CHO-S cells) (mouse), sequence (chain, as listed by the source): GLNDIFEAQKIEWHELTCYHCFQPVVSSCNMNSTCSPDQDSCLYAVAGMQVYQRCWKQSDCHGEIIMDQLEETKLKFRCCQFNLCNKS

The substance “R-Phycoerythrin-conjugated Streptavidin (from UniProt P22629 37-163)” displayed an MFI of 24400.
